Biological target: F-actin of ghost muscle fibres (rabbit (endogenous in m. psoas fibres)) (UniProt P68135)
Experiment: fluorescence intensity of labelled proteins bound in ghost muscle fibres; actin-Tpm-S1 complexes in ghost fibres; rigor (no nucleotide) or MgADP; with MgATP the ratio of S1 to actin was reduced
Details: for stoichiometry N: scale: actin per tropomyosin

Chain of recombinant wild-type γ-tropomyosin (Tpm3.12) (natural protein) (Q5KR47 whole entry): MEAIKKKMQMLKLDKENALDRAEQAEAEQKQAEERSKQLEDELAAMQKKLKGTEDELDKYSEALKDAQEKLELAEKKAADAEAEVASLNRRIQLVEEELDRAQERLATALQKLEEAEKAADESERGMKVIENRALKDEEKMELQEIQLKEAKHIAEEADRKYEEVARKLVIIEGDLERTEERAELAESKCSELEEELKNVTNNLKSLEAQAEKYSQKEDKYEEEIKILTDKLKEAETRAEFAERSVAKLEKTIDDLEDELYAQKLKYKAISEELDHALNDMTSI
Chain of myosin subfragment-1 (P02602 whole entry, looked up, the tested form may be a part): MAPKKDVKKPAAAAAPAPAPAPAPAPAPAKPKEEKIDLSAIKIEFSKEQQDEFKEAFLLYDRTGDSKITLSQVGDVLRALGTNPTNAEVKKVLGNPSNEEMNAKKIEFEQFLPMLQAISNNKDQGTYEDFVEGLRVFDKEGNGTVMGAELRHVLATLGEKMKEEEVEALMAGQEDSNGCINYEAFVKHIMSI

stoichiometry N | stoichiometry N (actin per S1 (molar ratio 1:2.4)) | Substance
7 | – | recombinant wild-type γ-tropomyosin (Tpm3.12) (natural protein)
7 | – | E173A mutant γ-tropomyosin (Tpm3.12) (natural protein)
– | 2.4 | myosin subfragment-1 (from UniProt P02602 1-192) (complex)
